Experiment [1] concerns the target T1, full-length human GIPR with an N-terminal FLAG tag, overexpressed on HEK-293T cells (human, UniProt P48546 22-466).
T1 sequence (looked up): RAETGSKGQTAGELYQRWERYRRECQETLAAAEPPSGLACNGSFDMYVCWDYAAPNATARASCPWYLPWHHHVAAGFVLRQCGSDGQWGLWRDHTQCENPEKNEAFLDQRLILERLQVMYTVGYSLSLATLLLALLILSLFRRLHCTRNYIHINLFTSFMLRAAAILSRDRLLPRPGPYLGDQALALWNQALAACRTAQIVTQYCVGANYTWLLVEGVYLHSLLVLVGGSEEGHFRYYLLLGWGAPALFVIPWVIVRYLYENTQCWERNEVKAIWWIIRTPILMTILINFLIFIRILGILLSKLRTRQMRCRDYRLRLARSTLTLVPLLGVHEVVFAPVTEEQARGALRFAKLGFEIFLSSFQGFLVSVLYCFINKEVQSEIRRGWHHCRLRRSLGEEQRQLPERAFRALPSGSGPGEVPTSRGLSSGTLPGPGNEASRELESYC
Put plainly: cell-based or functional assay.

The target of experiment [2] is full-length human GLP-1R with an N-terminal FLAG tag, overexpressed on HEK-293T cells (human, UniProt P43220 24-463). Put plainly: cell-based or functional assay.

Starred links: 1 amine or outer side, 2 acyl side, 3 side chain; linkers in the order of their positions; H or OH if unused. Non-standard residues stand in square brackets, D forms with d. Groups on a side chain read outwards from the residue. *: point of attachment. C18 diacid = O=C(O)CCCCCCCCCCCCCCCCC(=O)*; γGlu = O=C(O)[C@H](CCC(=O)[*:2])N[*:1]; AEEA = NCCOCCOCC(=O)O; Aib = CC(C)(N)C(=O)O

B1: Compound No. 168 (peptide)
peptide: H-Y[Aib]EGTFISDYSI[Aib]LDKAAQAK([AEEA-AEEA-γGlu-γGlu-C18 diacid])FVEWLLAQRG-OH
SMILES: CC[C@H](C)[C@H](NC(=O)[C@H](Cc1ccccc1)NC(=O)[C@@H](NC(=O)CNC(=O)[C@H](CCC(=O)O)NC(=O)C(C)(C)NC(=O)[C@@H](N)Cc1ccc(O)cc1)[C@@H](C)O)C(=O)N[C@@H](CO)C(=O)N[C@@H](CC(=O)O)C(=O)N[C@@H](Cc1ccc(O)cc1)C(=O)N[C@@H](CO)C(=O)N[C@H](C(=O)NC(C)(C)C(=O)N[C@@H](CC(C)C)C(=O)N[C@@H](CC(=O)O)C(=O)N[C@@H](CCCCN)C(=O)N[C@@H](C)C(=O)N[C@@H](C)C(=O)N[C@@H](CCC(N)=O)C(=O)N[C@@H](C)C(=O)N[C@@H](CCCCNC(=O)COCCOCCNC(=O)COCCOCCNC(=O)CC[C@H](NC(=O)CC[C@H](NC(=O)CCCCCCCCCCCCCCCCC(=O)O)C(=O)O)C(=O)O)C(=O)N[C@@H](Cc1ccccc1)C(=O)N[C@H](C(=O)N[C@@H](CCC(=O)O)C(=O)N[C@@H](Cc1c[nH]c2ccccc12)C(=O)N[C@@H](CC(C)C)C(=O)N[C@@H](CC(C)C)C(=O)N[C@@H](C)C(=O)N[C@@H](CCC(N)=O)C(=O)N[C@@H](CCCNC(=N)N)C(=O)NCC(=O)O)C(C)C)[C@@H](C)CC
For the molecule B1, the “Human GIPR cAMP EC50, HEK293T” value in experiment [1] was 0.9 pM. In addition, the “Human GLP1R cAMP EC50, HEK293T” value in experiment [2] is 16.6 nM.

For the molecule Me-Y[Aib]EGTFISDYSIALDRAAQQK([AEEA-AEEA-γGlu-γGlu-C18 diacid])FVNWLLAQSPG-OH [Compound No. 178], in experiment [1], the “Human GIPR cAMP EC50, HEK293T” value was found to be 0.6 pM. In experiment [2], the “Human GLP1R cAMP EC50, HEK293T” value was 186 nM.

B2: Compound No. 170 (peptide)
peptide: H-Y[Aib]EGTFISDYSI[Aib]LDKAK([AEEA-AEEA-γGlu-C18 diacid])QQDFVNWLLAQRG-OH
SMILES: CC[C@H](C)[C@H](NC(=O)[C@H](Cc1ccccc1)NC(=O)[C@@H](NC(=O)CNC(=O)[C@H](CCC(=O)O)NC(=O)C(C)(C)NC(=O)[C@@H](N)Cc1ccc(O)cc1)[C@@H](C)O)C(=O)N[C@@H](CO)C(=O)N[C@@H](CC(=O)O)C(=O)N[C@@H](Cc1ccc(O)cc1)C(=O)N[C@@H](CO)C(=O)N[C@H](C(=O)NC(C)(C)C(=O)N[C@@H](CC(C)C)C(=O)N[C@@H](CC(=O)O)C(=O)N[C@@H](CCCCN)C(=O)N[C@@H](C)C(=O)N[C@@H](CCCCNC(=O)COCCOCCNC(=O)COCCOCCNC(=O)CC[C@H](NC(=O)CCCCCCCCCCCCCCCCC(=O)O)C(=O)O)C(=O)N[C@@H](CCC(N)=O)C(=O)N[C@@H](CCC(N)=O)C(=O)N[C@@H](CC(=O)O)C(=O)N[C@@H](Cc1ccccc1)C(=O)N[C@H](C(=O)N[C@@H](CC(N)=O)C(=O)N[C@@H](Cc1c[nH]c2ccccc12)C(=O)N[C@@H](CC(C)C)C(=O)N[C@@H](CC(C)C)C(=O)N[C@@H](C)C(=O)N[C@@H](CCC(N)=O)C(=O)N[C@@H](CCCNC(=N)N)C(=O)NCC(=O)O)C(C)C)[C@@H](C)CC
As for B2, the “Human GIPR cAMP EC50, HEK293T” value in experiment [1] turned out to be 0.5 pM. For the same molecule, the “Human GLP1R cAMP EC50, HEK293T” value in experiment [2] came to 61.7 nM.

Regarding Me-Y[Aib]EGTFISDYSIALDKIAQ[Aib]K([AEEA-AEEA-γGlu-γGlu-C18 diacid])FVEWLLAQRG-OH [Compound No. 173], the “Human GIPR cAMP EC50, HEK293T” value in experiment [1] worked out at 0.3 pM. In addition, in experiment [2], the “Human GLP1R cAMP EC50, HEK293T” value was determined as 105 nM.

Consider Me-Y[Aib]EGTFISDYSIALDKAAQ[Aib]K([AEEA-AEEA-γGlu-γGlu-C18 diacid])FVEWLLAQRG-OH [Compound No. 174], for which the “Human GIPR cAMP EC50, HEK293T” value in experiment [1] was 0.4 pM. In addition, in experiment [2], the “Human GLP1R cAMP EC50, HEK293T” value worked out at 47.9 nM.

As for Me-Y[Aib]EGTFISDYSIALDKAAQ[Aib]K([AEEA-AEEA-γGlu-γGlu-C18 diacid])FVNWLLAQRG-OH [Compound No. 176], in experiment [1], the “Human GIPR cAMP EC50, HEK293T” value amounted to 0.3 pM. Besides, the “Human GLP1R cAMP EC50, HEK293T” value in experiment [2] was 40.7 nM.

B3: Compound No. 169 (peptide)
peptide: H-Y[Aib]EGTFISDYSI[Aib]LDKAK([AEEA-AEEA-γGlu-C18 diacid])QQDFVEWLLAQRG-OH
SMILES: CC[C@H](C)[C@H](NC(=O)[C@H](Cc1ccccc1)NC(=O)[C@@H](NC(=O)CNC(=O)[C@H](CCC(=O)O)NC(=O)C(C)(C)NC(=O)[C@@H](N)Cc1ccc(O)cc1)[C@@H](C)O)C(=O)N[C@@H](CO)C(=O)N[C@@H](CC(=O)O)C(=O)N[C@@H](Cc1ccc(O)cc1)C(=O)N[C@@H](CO)C(=O)N[C@H](C(=O)NC(C)(C)C(=O)N[C@@H](CC(C)C)C(=O)N[C@@H](CC(=O)O)C(=O)N[C@@H](CCCCN)C(=O)N[C@@H](C)C(=O)N[C@@H](CCCCNC(=O)COCCOCCNC(=O)COCCOCCNC(=O)CC[C@H](NC(=O)CCCCCCCCCCCCCCCCC(=O)O)C(=O)O)C(=O)N[C@@H](CCC(N)=O)C(=O)N[C@@H](CCC(N)=O)C(=O)N[C@@H](CC(=O)O)C(=O)N[C@@H](Cc1ccccc1)C(=O)N[C@H](C(=O)N[C@@H](CCC(=O)O)C(=O)N[C@@H](Cc1c[nH]c2ccccc12)C(=O)N[C@@H](CC(C)C)C(=O)N[C@@H](CC(C)C)C(=O)N[C@@H](C)C(=O)N[C@@H](CCC(N)=O)C(=O)N[C@@H](CCCNC(=N)N)C(=O)NCC(=O)O)C(C)C)[C@@H](C)CC
With B3, the “Human GIPR cAMP EC50, HEK293T” value in experiment [1] turned out to be 0.8 pM. In addition, in experiment [2], the “Human GLP1R cAMP EC50, HEK293T” value was found to be 178 nM.

For YXEGTFISDYSIAXDKAXQQDFVEWLLAQRG (N-terminus H; Aib at 2, 14; Km at 18 = Lys(2OEGgE-C18DA); C-terminus OH) [Compound No. 164], the “Human GIPR cAMP EC50, HEK293T” value in experiment [1] amounted to 0.2 pM. Also, in experiment [2], the “Human GLP1R cAMP EC50, HEK293T” value is more than 1000 nM.

For YXEGTFISDYSIAXDKIXQADFVEWLLAQRG (N-terminus H; Aib at 2, 14; Km at 18 = Lys(2OEGgE-C18DA); C-terminus OH) [Compound No. 166], the “Human GIPR cAMP EC50, HEK293T” value in experiment [1] came out at 0.5 pM. Moreover, in experiment [2], the “Human GLP1R cAMP EC50, HEK293T” value amounted to 74.1 nM.

As to YXEGTFISDYSIAXDKAXQADFVEWLLAQRG (N-terminus H; Aib at 2, 14; Km at 18 = Lys(2OEGgE-C18DA); C-terminus OH) [Compound No. 165], the “Human GIPR cAMP EC50, HEK293T” value in experiment [1] came out at 0.1 pM. In experiment [2], the “Human GLP1R cAMP EC50, HEK293T” value is more than 1000 nM.

For the molecule Me-Y[Aib]EGTFISDYSIALDKIAQ[Aib]K([AEEA-AEEA-γGlu-γGlu-C18 diacid])FVNWLLAQRG-OH [Compound No. 175], the “Human GIPR cAMP EC50, HEK293T” value in experiment [1] came to 0.7 pM. In experiment [2], the “Human GLP1R cAMP EC50, HEK293T” value is 58.9 nM.

B4: Compound No. 167 (peptide)
peptide: H-Y[Aib]EGTFISDYSI[Aib]LDKAAQQK([AEEA-AEEA-γGlu-γGlu-C18 diacid])FVEWLLAQRG-OH
SMILES: CC[C@H](C)[C@H](NC(=O)[C@H](Cc1ccccc1)NC(=O)[C@@H](NC(=O)CNC(=O)[C@H](CCC(=O)O)NC(=O)C(C)(C)NC(=O)[C@@H](N)Cc1ccc(O)cc1)[C@@H](C)O)C(=O)N[C@@H](CO)C(=O)N[C@@H](CC(=O)O)C(=O)N[C@@H](Cc1ccc(O)cc1)C(=O)N[C@@H](CO)C(=O)N[C@H](C(=O)NC(C)(C)C(=O)N[C@@H](CC(C)C)C(=O)N[C@@H](CC(=O)O)C(=O)N[C@@H](CCCCN)C(=O)N[C@@H](C)C(=O)N[C@@H](C)C(=O)N[C@@H](CCC(N)=O)C(=O)N[C@@H](CCC(N)=O)C(=O)N[C@@H](CCCCNC(=O)COCCOCCNC(=O)COCCOCCNC(=O)CC[C@H](NC(=O)CC[C@H](NC(=O)CCCCCCCCCCCCCCCCC(=O)O)C(=O)O)C(=O)O)C(=O)N[C@@H](Cc1ccccc1)C(=O)N[C@H](C(=O)N[C@@H](CCC(=O)O)C(=O)N[C@@H](Cc1c[nH]c2ccccc12)C(=O)N[C@@H](CC(C)C)C(=O)N[C@@H](CC(C)C)C(=O)N[C@@H](C)C(=O)N[C@@H](CCC(N)=O)C(=O)N[C@@H](CCCNC(=N)N)C(=O)NCC(=O)O)C(C)C)[C@@H](C)CC
As for B4, the “Human GIPR cAMP EC50, HEK293T” value in experiment [1] amounted to 0.9 pM. Moreover, the “Human GLP1R cAMP EC50, HEK293T” value in experiment [2] was determined as 38 nM.

B5: Compound No. 171 (peptide)
peptide: H-Y[Aib]EGTFISDYSI[Aib]LDKAK([AEEA-AEEA-γGlu-C18 diacid])QADFVNWLLAQRG-OH
SMILES: CC[C@H](C)[C@H](NC(=O)[C@H](Cc1ccccc1)NC(=O)[C@@H](NC(=O)CNC(=O)[C@H](CCC(=O)O)NC(=O)C(C)(C)NC(=O)[C@@H](N)Cc1ccc(O)cc1)[C@@H](C)O)C(=O)N[C@@H](CO)C(=O)N[C@@H](CC(=O)O)C(=O)N[C@@H](Cc1ccc(O)cc1)C(=O)N[C@@H](CO)C(=O)N[C@H](C(=O)NC(C)(C)C(=O)N[C@@H](CC(C)C)C(=O)N[C@@H](CC(=O)O)C(=O)N[C@@H](CCCCN)C(=O)N[C@@H](C)C(=O)N[C@@H](CCCCNC(=O)COCCOCCNC(=O)COCCOCCNC(=O)CC[C@H](NC(=O)CCCCCCCCCCCCCCCCC(=O)O)C(=O)O)C(=O)N[C@@H](CCC(N)=O)C(=O)N[C@@H](C)C(=O)N[C@@H](CC(=O)O)C(=O)N[C@@H](Cc1ccccc1)C(=O)N[C@H](C(=O)N[C@@H](CC(N)=O)C(=O)N[C@@H](Cc1c[nH]c2ccccc12)C(=O)N[C@@H](CC(C)C)C(=O)N[C@@H](CC(C)C)C(=O)N[C@@H](C)C(=O)N[C@@H](CCC(N)=O)C(=O)N[C@@H](CCCNC(=N)N)C(=O)NCC(=O)O)C(C)C)[C@@H](C)CC
On to B5, for which the “Human GIPR cAMP EC50, HEK293T” value in experiment [1] amounted to 0.6 pM. The “Human GLP1R cAMP EC50, HEK293T” value in experiment [2] came out at 83.2 nM.

Regarding Me-Y[Aib]EGTFISDYSIALDRIAQQK([AEEA-AEEA-γGlu-γGlu-C18 diacid])FVNWLLAQSPSSGAPPPS-OH [Compound No. 177], the “Human GIPR cAMP EC50, HEK293T” value in experiment [1] stood at 0.3 pM. Also, in experiment [2], the “Human GLP1R cAMP EC50, HEK293T” value turned out to be 100 nM.

The values above are taken from patent US20230143604A1, “QW DOSING OF GIP RECEPTOR AGONIST PEPTIDE COMPOUNDS AND USES THEREOF” (TAKEDA PHARMACEUTICAL COMPANY LIMITED, priority 2020, published 2023).
